Assay results published in the supplement of paper PMC11780869.

Test system: Bacillus subtilis
Experiment: cleaved RNA product abundance (RNA/gDNA barcode ratio) relative to median wild-type variant (ratio to wild type); higher = more accumulation of the downstream cleavage product
Details: cleavage site: cggR-gapA (positions -7 to +36 mutated)
In short: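 B. subtilis strains with chromosomally integrated reporter mRNAs (truncated aprE or tetM) holding barcoded, mutagenized RNase Y cleavage-site windows grew in LB at 37°C from OD600 0.0003 to 0.3. Cleaved product abundance is each construct's RNA:gDNA barcode ratio, scaled to the median construct with the unmutated site. It came from sequencing barcodes of gel-selected, reverse-transcribed cleaved RNA and of genomic DNA.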

[1] = experiment (reporter, strain, medium): exp 4a: truncated aprE reporter, strain BJT201 with 2% xylose (RNase J1 expressed)
[2] = experiment (reporter, strain, medium): exp 2b: truncated aprE reporter, strain BJT200
[3] = experiment (reporter, strain, medium): exp 6: tetM reporter, strain 168

Sequence | cleaved RNA product abundance [1] | cleaved RNA product abundance [2] | cleaved RNA product abundance [3]
ACAGACGAAGGAGCCGCAAAGAAGTTATTAAGGGATGAATAATTCTTCAATATAAATATCTCTCACTTATTTAAA | 0.18 | – | –
ACAGACGAAGGAGCCGCAAAGAAGTTATTAAGGGATGAATAATTGCTCAATATAAATATCTCTCACTTATTTAAA | 0.0655 | 0.0946 | –
ACAGACGAAGGAGCCGCAAAGAAGTTATTAAGGGATGAATAATTTCTCAATATAAATATCTCTCACTTATTTAAA | 0.16 | – | –
ACAGACGAAGGAGCCGCAAAGAAGTTATTAAGGGATGAATACTACCTCAATATAAATATCTCTCACTTATTTAAA | 0.168 | 0.124 | –
ACAGACGAAGGAGCCGCAAAGAAGTTATTAAGGGATGAATACTCACTCAATATAAATATCTCTCACTTATTTAAA | 0.0953 | – | –
ACAGACGAAGGAGCCGCAAAGAAGTTATTAAGGGATGAATACTCCATCAATATAAATATCTCTCACTTATTTAAA | 0.137 | 0.102 | 0.152
ACAGACGAAGGAGCCGCAAAGAAGTTATTAAGGGATGAATACTCCCACAATATAAATATCTCTCACTTATTTAAA | 0.139 | – | –
ACAGACGAAGGAGCCGCAAAGAAGTTATTAAGGGATGAATACTCCCTAAATATAAATATCTCTCACTTATTTAAA | – | 0.366 | –
ACAGACGAAGGAGCCGCAAAGAAGTTATTAAGGGATGAATACTCCCTCAAAATAAATATCTCTCACTTATTTAAA | 0.194 | 0.176 | –
ACAGACGAAGGAGCCGCAAAGAAGTTATTAAGGGATGAATACTCCCTCAAGATAAATATCTCTCACTTATTTAAA | – | 0.156 | –
ACAGACGAAGGAGCCGCAAAGAAGTTATTAAGGGATGAATACTCCCTCAATAGAAATATCTCTCACTTATTTAAA | 0.115 | – | –
ACAGACGAAGGAGCCGCAAAGAAGTTATTAAGGGATGAATACTCCCTCAATATAAAAATCTCTCACTTATTTAAA | 0.819 | 0.511 | –
ACAGACGAAGGAGCCGCAAAGAAGTTATTAAGGGATGAATACTCCCTCAATATAAATATCTCTCACTTATTTAAA | 0.732 | 0.565 | 0.566
ACAGACGAAGGAGCCGCAAAGAAGTTATTAAGGGATGAATACTCCCTCAATTTAAATATCTCTCACTTATTTAAA | 0.167 | – | –
ACAGACGAAGGAGCCGCAAAGAAGTTATTAAGGGATGAATACTCCCTCCATATAAATATCTCTCACTTATTTAAA | 0.218 | 0.138 | –
ACAGACGAAGGAGCCGCAAAGAAGTTATTAAGGGATGAATACTCCCTCTATATAAATATCTCTCACTTATTTAAA | 0.259 | 0.275 | –
ACAGACGAAGGAGCCGCAAAGAAGTTATTAAGGGATGAATACTCCCTTAATATAAATATCTCTCACTTATTTAAA | 0.47 | – | –
ACAGACGAAGGAGCCGCAAAGAAGTTATTAAGGGATGAATACTCCGTCAATATAAATATCTCTCACTTATTTAAA | 0.126 | – | –
ACAGACGAAGGAGCCGCAAAGAAGTTATTAAGGGATGAATACTCCTTCAATATAAATATCTCTCACTTATTTAAA | 0.253 | – | –
ACAGACGAAGGAGCCGCAAAGAAGTTATTAAGGGATGAATACTCTCTCAATATAAATATCTCTCACTTATTTAAA | 0.226 | – | –
ACAGACGAAGGAGCCGCAAAGAAGTTATTAAGGGATGAATACTGCCTCAATATAAATATCTCTCACTTATTTAAA | – | 0.112 | –
ACAGACGAAGGAGCCGCAAAGAAGTTATTAAGGGATGAATACTTCCTCAATATAAATATCTCTCACTTATTTAAA | 0.247 | 0.156 | –
ACAGACGAAGGAGCCGCAAAGAAGTTATTAAGGGATGAATAGTCCCTAAATATAAATATCTCTCACTTATTTAAA | 0.547 | – | –
ACAGACGAAGGAGCCGCAAAGAAGTTATTAAGGGATGAATAGTCCCTCAAAATAAATATCTCTCACTTATTTAAA | 0.31 | – | –
ACAGACGAAGGAGCCGCAAAGAAGTTATTAAGGGATGAATAGTCCCTCAATATAAAAATCTCTCACTTATTTAAA | 1 | – | –
ACAGACGAAGGAGCCGCAAAGAAGTTATTAAGGGATGAATAGTCCCTCAATATAAATATCTCTCACTTATTTAAA | 0.857 | 0.912 | 1.25
ACAGACGAAGGAGCCGCAAAGAAGTTATTAAGGGATGAATAGTCCCTCATTATAAATATCTCTCACTTATTTAAA | 0.235 | – | –

Sequence | cleaved RNA product abundance [1] | cleaved RNA product abundance [2] | cleaved RNA product abundance [3]
ACAGACGAAGGAGCCGCAAAGAAGTTATTAAGGGATGAATAGTCCCTGAATATAAATATCTCTCACTTATTTAAA | 0.334 | – | –
ACAGACGAAGGAGCCGCAAAGAAGTTATTAAGGGATGAATAGTCCTTCAATATAAATATCTCTCACTTATTTAAA | 0.359 | – | –
ACAGACGAAGGAGCCGCAAAGAAGTTATTAAGGGATGAATATACCCTCAATATAAATATCTCTCACTTATTTAAA | 0.485 | – | –
ACAGACGAAGGAGCCGCAAAGAAGTTATTAAGGGATGAATATCCCCTCAATATAAATATCTCTCACTTATTTAAA | 0.455 | – | –
ACAGACGAAGGAGCCGCAAAGAAGTTATTAAGGGATGAATATGCCCTCAATATAAATATCTCTCACTTATTTAAA | 0.363 | – | –
ACAGACGAAGGAGCCGCAAAGAAGTTATTAAGGGATGAATATTCACTCAATATAAATATCTCTCACTTATTTAAA | 0.18 | – | –
ACAGACGAAGGAGCCGCAAAGAAGTTATTAAGGGATGAATATTCCATCAATATAAATATCTCTCACTTATTTAAA | 0.312 | 0.141 | –
ACAGACGAAGGAGCCGCAAAGAAGTTATTAAGGGATGAATATTCCCACAATATAAATATCTCTCACTTATTTAAA | 0.178 | 0.177 | –
ACAGACGAAGGAGCCGCAAAGAAGTTATTAAGGGATGAATATTCCCGCAATATAAATATCTCTCACTTATTTAAA | 0.221 | – | –
ACAGACGAAGGAGCCGCAAAGAAGTTATTAAGGGATGAATATTCCCTAAATATAAATATCTCTCACTTATTTAAA | 0.462 | – | –
ACAGACGAAGGAGCCGCAAAGAAGTTATTAAGGGATGAATATTCCCTCAAAATAAATATCTCTCACTTATTTAAA | 0.224 | 0.231 | –
ACAGACGAAGGAGCCGCAAAGAAGTTATTAAGGGATGAATATTCCCTCAAGATAAATATCTCTCACTTATTTAAA | 0.243 | 0.254 | –
ACAGACGAAGGAGCCGCAAAGAAGTTATTAAGGGATGAATATTCCCTCAATAAAAATATCTCTCACTTATTTAAA | 0.156 | – | –
ACAGACGAAGGAGCCGCAAAGAAGTTATTAAGGGATGAATATTCCCTCAATATAAATATCTCTCACTTATTTAAA | 0.699 | 0.675 | 0.84
ACAGACGAAGGAGCCGCAAAGAAGTTATTAAGGGATGAATATTCCCTCAATATAAATCTCTCTCACTTATTTAAA | 0.471 | – | –
ACAGACGAAGGAGCCGCAAAGAAGTTATTAAGGGATGAATATTCCCTCACTATAAATATCTCTCACTTATTTAAA | – | 0.121 | –
ACAGACGAAGGAGCCGCAAAGAAGTTATTAAGGGATGAATATTCCCTCATTATAAATATCTCTCACTTATTTAAA | 0.316 | – | –
ACAGACGAAGGAGCCGCAAAGAAGTTATTAAGGGATGAATATTCCCTCCATATAAATATCTCTCACTTATTTAAA | 0.193 | – | –
ACAGACGAAGGAGCCGCAAAGAAGTTATTAAGGGATGAATATTCCCTTAATATAAATATCTCTCACTTATTTAAA | 0.526 | 1.01 | –
ACAGACGAAGGAGCCGCAAAGAAGTTATTAAGGGATGAATATTCCGTCAATATAAATATCTCTCACTTATTTAAA | 0.194 | – | –
ACAGACGAAGGAGCCGCAAAGAAGTTATTAAGGGATGAATATTCCTTCAATATAAATATCTCTCACTTATTTAAA | 0.546 | – | –
ACAGACGAAGGAGCCGCAAAGAAGTTATTAAGGGATGAATATTCGCTCAATATAAATATCTCTCACTTATTTAAA | 0.086 | – | –
ACAGACGAAGGAGCCGCAAAGAAGTTATTAAGGGATGAATATTCTCTCAATATAAATATCTCTCACTTATTTAAA | 0.343 | 0.265 | –
ACAGACGAAGGAGCCGCAAAGAAGTTATTAAGGGATGAATATTGCCTCAATATAAATATCTCTCACTTATTTAAA | 0.107 | – | –
ACAGACGAAGGAGCCGCAAAGAAGTTATTAAGGGATGAATATTTCCTCAATATAAATATCTCTCACTTATTTAAA | 0.186 | 0.188 | –
ACAGACGAAGGAGCCGCAAAGAAGTTATTAAGGGATGAATCAGCCCTCAATATAAATATCTCTCACTTATTTAAA | 0.813 | – | –
